Numbering of substitutions follows the chain as printed.

For two molecules, signal [OD405 nm] results are on record in patent publication US20180346602A1.

For experiment [1], the target named is anti-VEGF/ANG2 antibody (IgG1 subclass with mutations P329G/L234A/L235A/I253A/H310A/H435A) [IgG part: P01857]. The experiment in a line: sandwich ELISA in serum; capture M1.3.17, tracer M1.7.24; anti-VEGF/ANG2 antibody 78.125 ng/mL. For orientation: An ELISA detects its analyte on a solid surface through an enzyme-linked reagent.
Experiment [2] concerns the target anti-VEGF/ANG2 antibody (IgG1 subclass with mutations P329G/L234A/L235A/I253A/H310A/H435A) (human) [IgG part: P01857]. Nature of the experiment: sandwich ELISA in serum; M1.3.17-Bi capture on SA plate; tracer anti-human kappa M1.7.10-Dig; analyte 0.15625 ng/mL.
Experiment [3] concerns the target anti-VEGF/ANG2 antibody (IgG1 subclass with mutations P329G/L234A/L235A/I253A/H310A/H435A) [IgG part: P01857]. The experiment in a line: bridging ELISA; biotinylated and digoxigenylated anti-VEGF/ANG2 antibody bridged by M1.3.17 at 3.90625 ng/mL.
The target is the same in experiment [4]. Nature of the experiment: sandwich ELISA in serum; capture M1.3.17, tracer M1.7.24; anti-VEGF/ANG2 antibody 625 ng/mL.
The target is the same in experiment [5]. Nature of the experiment: bridging ELISA; biotinylated and digoxigenylated anti-VEGF/ANG2 antibody bridged by M1.3.17 at 7.8125 ng/mL.
Experiment [6] addresses anti-VEGF/ANG2 antibody (IgG1 subclass with mutations P329G/L234A/L235A/I253A/H310A/H435A) (human) [IgG part: P01857]. Nature of the experiment: sandwich ELISA in serum; M1.3.17-Bi capture on SA plate; tracer anti-human kappa M1.7.10-Dig; analyte 0.3125 ng/mL.
Experiment [7] shares this target. The experiment in a line: sandwich ELISA in serum; M1.3.17-Bi capture on SA plate; tracer anti-human kappa M1.7.10-Dig; analyte 0 ng/mL (blank).
The target of experiment [8] is anti-VEGF/ANG2 antibody (IgG1 subclass with mutations P329G/L234A/L235A/I253A/H310A/H435A) [IgG part: P01857]. Nature of the experiment: bridging ELISA; biotinylated and digoxigenylated anti-VEGF/ANG2 antibody bridged by M1.3.17 at 125 ng/mL.
Experiment [9] has the same target. Nature of the experiment: sandwich ELISA in serum; capture M1.3.17, tracer M1.7.24; anti-VEGF/ANG2 antibody 1250 ng/mL.
The target of experiment [10] is anti-VEGF/ANG2 antibody (IgG1 subclass with mutations P329G/L234A/L235A/I253A/H310A/H435A) (human) [IgG part: P01857]. The experiment in a line: sandwich ELISA in serum; M1.3.17-Bi capture on SA plate; tracer anti-human kappa M1.7.10-Dig; analyte 0.625 ng/mL.
The target in experiment [11] is anti-VEGF/ANG2 antibody (IgG1 subclass with mutations P329G/L234A/L235A/I253A/H310A/H435A) [IgG part: P01857]. Nature of the experiment: sandwich ELISA in serum; capture M1.3.17, tracer M1.7.24; anti-VEGF/ANG2 antibody 0 ng/mL (blank).
Experiment [12] shares this target. Nature of the experiment: sandwich ELISA in serum; capture M1.7.10-Bi, tracer M1.7.24-Dig; anti-VEGF/ANG2 antibody 0.078125 ng/mL.
The target of experiment [13] is cytokine (IL-2) antibody conjugate with the mutations P329G, L234A, L235A, I253A, H310A, and H435A. Nature of the experiment: sandwich ELISA in serum; capture anti-IL2 antibody, tracer M1.7.24; conjugate 1250 ng/mL.
Experiment [14] deals with anti-VEGF/ANG2 antibody (IgG1 subclass with mutations P329G/L234A/L235A/I253A/H310A/H435A) [IgG part: P01857]. The experiment in a line: sandwich ELISA in serum; capture M1.7.10-Bi, tracer M1.7.24-Dig; anti-VEGF/ANG2 antibody 0.15625 ng/mL.
Experiment [15] has the same target. Nature of the experiment: sandwich ELISA in serum; capture M1.7.10-Bi, tracer M1.7.24-Dig; anti-VEGF/ANG2 antibody 1.25 ng/mL.
For experiment [16], the target named is cytokine (IL-2) antibody conjugate with the mutations P329G, L234A, L235A, I253A, H310A, and H435A. Nature of the experiment: sandwich ELISA in serum; capture anti-IL2 antibody, tracer M1.7.24; conjugate 156.25 ng/mL.
The target in experiment [17] is anti-VEGF/ANG2 antibody (IgG1 subclass with mutations P329G/L234A/L235A/I253A/H310A/H435A) [IgG part: P01857]. The experiment in a line: sandwich ELISA in serum; capture M1.7.10-Bi, tracer M1.7.24-Dig; anti-VEGF/ANG2 antibody 0.3125 ng/mL.
For experiment [18], the target named is cytokine (IL-2) antibody conjugate with the mutations P329G, L234A, L235A, I253A, H310A, and H435A. The experiment in a line: sandwich ELISA in serum; capture anti-IL2 antibody, tracer M1.7.24; conjugate 625 ng/mL.
Experiment [19] has the same target. The experiment in a line: sandwich ELISA in serum; capture anti-IL2 antibody, tracer M1.7.24; conjugate 0 ng/mL (blank).
The target of experiment [20] is anti-VEGF/ANG2 antibody (IgG1 subclass with mutations P329G/L234A/L235A/I253A/H310A/H435A) [IgG part: P01857]. Nature of the experiment: sandwich ELISA in serum; capture M1.7.10-Bi, tracer M1.7.24-Dig; anti-VEGF/ANG2 antibody 0.0390625 ng/mL.

B1: anti-variant (human) Fc-region antibody M1.3.17 (antibody, V domains shown)
VH: EVKLLESGGGLVQPGGSLKLSCAASGIDFRRYWMNWVRQAPGKGLEWIGEIDPDSSTINYTPSLKDKFIISRDNAKNTMYLQMRKVRSEDTALYYCARPYDYGAWFAYWGQGTLVTVSA
VL: QAVVTQESALTTSPGETVTLTCRSTTGAVTTSNYANWVQEKPDHLFTGLIGGTNKRAPGVPARFSGSLIGDKAALTITGAQTEDEAIYFCALWYSDHWVFGGGTKLTVL
B1: the signal [OD405 nm] was 0.301 OD405 nm in [1]; 0.107 OD405 nm in experiment [2]; 0.045 OD405 nm in experiment [3]; 1.13 OD405 nm in experiment [4]; 0.047 OD405 nm in [5]; 0.181 OD405 nm in experiment [6]. In addition, the signal [OD405 nm] in [7] worked out at 0.074 OD405 nm; in experiment [8], 0.085 OD405 nm; in experiment [9], 1.88 OD405 nm; in experiment [10] it was 0.314 OD405 nm; in experiment [11] it was 0.175 OD405 nm.

B2: anti-variant (human) Fc-region antibody M1.7.24 (antibody, V domains shown)
VH: B1 VH with I27F, R30S, D52T, M79L, R84I, A97V, Y108S
VL: B1 VL with T25S, D96N
With B2, the signal [OD405 nm] was 0.096 OD405 nm in [12]; 1.46 OD405 nm in experiment [13]; 0.147 OD405 nm in [14]; 0.847 OD405 nm in [15]; 0.253 OD405 nm in [16]; 0.261 OD405 nm in [17]. Moreover, the signal [OD405 nm] was 0.811 OD405 nm in experiment [18], 0.0475 OD405 nm in experiment [19] and 0.072 OD405 nm in experiment [20].
